Test results reported in US20040001835A1, “Prevention or treatment of cancer using integrin alphavbeta3 antagonists in combination with other agents” (MedImmune, Inc., priority 2002, published 2004).
Entries after “also recorded” stand apart in the source; their conditions may differ. Like-named read-outs stand apart in the source and are kept apart here.

Key:
[1] = system: Rabbit αvβ3; assay: Flow cytometric analysis of antibody binding to cell lines
Procedure: (§1) FIG. 2. Flow cytometric analysis of antibody binding to tumor cell lines. […] Rat αvβ3 was not recognized by any of the three antibodies but was detected by the anti-rat αvβ3 control antibody.
(§2) Cells (5×10^5) were incubated with 0.5 μg of antibody and bound antibody was detected with a phycoerythrin-labeled secondary antibody. Mean channel fluorescence results are expressed as fold increase over an isotype matched control antibody. The mouse anti-rat β3 antibody F11 was included for as a positive control for the rat cell line RG2. HMVEC, human microvascular endothelial cells; ND, not done.

[2] = target: T1, Rat αvβ3 (Rattus norvegicus, UniProt Q8R2H2); assay: as above; conditions: Rat RG2 glioma; 5×10^5 cells, 0.5 μg antibody; vs isotype matched control antibody
T1 construct: endogenous in cells; host or cells: RG2 glioma
T1 sequence (Q8R2H2 26-787): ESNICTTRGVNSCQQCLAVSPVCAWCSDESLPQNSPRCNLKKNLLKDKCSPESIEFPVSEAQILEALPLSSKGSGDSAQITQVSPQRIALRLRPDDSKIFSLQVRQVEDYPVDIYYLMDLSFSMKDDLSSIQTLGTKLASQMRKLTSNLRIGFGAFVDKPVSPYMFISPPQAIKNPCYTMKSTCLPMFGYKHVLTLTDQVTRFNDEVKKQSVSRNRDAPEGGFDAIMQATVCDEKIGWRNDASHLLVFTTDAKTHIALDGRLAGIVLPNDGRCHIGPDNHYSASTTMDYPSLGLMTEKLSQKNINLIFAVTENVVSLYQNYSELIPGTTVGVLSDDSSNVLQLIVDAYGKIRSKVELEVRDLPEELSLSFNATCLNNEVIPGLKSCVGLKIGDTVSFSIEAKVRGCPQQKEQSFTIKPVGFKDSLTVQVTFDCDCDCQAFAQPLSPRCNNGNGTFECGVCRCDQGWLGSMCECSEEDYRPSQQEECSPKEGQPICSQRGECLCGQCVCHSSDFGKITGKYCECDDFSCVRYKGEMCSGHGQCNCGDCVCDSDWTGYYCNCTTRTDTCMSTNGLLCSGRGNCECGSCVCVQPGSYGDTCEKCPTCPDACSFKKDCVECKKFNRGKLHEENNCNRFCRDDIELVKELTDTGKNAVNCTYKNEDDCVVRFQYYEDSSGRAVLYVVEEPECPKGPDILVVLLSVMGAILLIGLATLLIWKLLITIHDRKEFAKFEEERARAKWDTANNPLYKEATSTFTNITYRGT
Procedure: as §1, §2

[3] = system: hamster αvβ3; assay: as above
Procedure: as §1, §2

[4] = target: T2, human αvβ3 (Homo sapiens, UniProt P05106); assay: as above; conditions: for Fold Increase Over Control (mean channel fluorescence): 5×10^5 cells, 0.5 μg antibody, vs isotype matched control antibody
T2 construct: endogenous in cells; host or cells: M21 melanoma, HMVEC, HUVEC
T2 sequence (P05106 27-788): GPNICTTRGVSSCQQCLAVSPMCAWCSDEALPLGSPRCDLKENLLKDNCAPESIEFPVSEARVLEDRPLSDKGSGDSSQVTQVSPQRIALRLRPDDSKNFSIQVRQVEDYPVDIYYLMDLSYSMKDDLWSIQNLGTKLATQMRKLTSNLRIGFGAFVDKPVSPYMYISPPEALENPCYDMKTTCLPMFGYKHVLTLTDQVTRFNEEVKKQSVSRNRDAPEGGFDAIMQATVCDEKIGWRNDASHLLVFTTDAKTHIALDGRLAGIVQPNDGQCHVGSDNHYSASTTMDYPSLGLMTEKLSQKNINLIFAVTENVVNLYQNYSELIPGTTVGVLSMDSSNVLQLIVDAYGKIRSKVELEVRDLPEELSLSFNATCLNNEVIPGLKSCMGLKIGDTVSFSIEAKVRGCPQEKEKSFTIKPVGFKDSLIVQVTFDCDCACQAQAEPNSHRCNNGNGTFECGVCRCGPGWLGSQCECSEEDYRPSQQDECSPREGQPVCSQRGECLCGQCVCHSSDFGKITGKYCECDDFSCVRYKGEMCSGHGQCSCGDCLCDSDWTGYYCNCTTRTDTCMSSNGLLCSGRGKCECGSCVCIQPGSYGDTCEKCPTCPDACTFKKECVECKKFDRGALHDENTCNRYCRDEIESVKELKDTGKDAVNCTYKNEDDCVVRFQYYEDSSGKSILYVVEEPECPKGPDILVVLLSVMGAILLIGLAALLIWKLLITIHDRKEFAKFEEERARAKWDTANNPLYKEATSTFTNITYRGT
T2 sequence (P06756 31-889 partner limits assumed): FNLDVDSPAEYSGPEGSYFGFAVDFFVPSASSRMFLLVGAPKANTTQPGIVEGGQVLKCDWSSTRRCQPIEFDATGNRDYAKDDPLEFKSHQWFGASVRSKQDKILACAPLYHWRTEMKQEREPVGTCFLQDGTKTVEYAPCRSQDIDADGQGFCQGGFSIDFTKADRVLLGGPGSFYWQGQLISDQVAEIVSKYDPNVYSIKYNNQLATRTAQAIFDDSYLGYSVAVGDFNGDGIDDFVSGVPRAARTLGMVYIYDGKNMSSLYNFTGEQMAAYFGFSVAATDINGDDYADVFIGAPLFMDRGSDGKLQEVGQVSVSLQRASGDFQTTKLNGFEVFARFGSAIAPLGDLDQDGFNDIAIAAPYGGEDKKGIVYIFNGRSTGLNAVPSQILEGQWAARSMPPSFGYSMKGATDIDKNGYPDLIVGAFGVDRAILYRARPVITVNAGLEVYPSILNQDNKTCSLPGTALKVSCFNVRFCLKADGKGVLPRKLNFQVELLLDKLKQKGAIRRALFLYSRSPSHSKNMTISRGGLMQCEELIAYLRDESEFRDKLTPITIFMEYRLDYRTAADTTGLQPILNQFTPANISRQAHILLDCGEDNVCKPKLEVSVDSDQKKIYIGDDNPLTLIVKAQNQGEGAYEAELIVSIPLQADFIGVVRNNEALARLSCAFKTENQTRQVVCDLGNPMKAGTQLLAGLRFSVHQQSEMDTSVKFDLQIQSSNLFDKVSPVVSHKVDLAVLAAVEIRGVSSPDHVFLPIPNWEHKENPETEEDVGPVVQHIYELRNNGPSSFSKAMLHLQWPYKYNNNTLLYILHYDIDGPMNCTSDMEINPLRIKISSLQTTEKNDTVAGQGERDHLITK
T2 sequence (P06756 891-1048 partner limits assumed): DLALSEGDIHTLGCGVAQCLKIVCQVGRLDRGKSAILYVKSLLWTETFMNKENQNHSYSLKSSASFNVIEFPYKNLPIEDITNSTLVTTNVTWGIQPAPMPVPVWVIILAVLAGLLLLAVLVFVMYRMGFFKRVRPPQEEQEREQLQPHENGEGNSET
Procedure: as §1, §2

[5] = system: Rabbit αvβ3; assay: 125-labeled Vitaxin binding affinities and number of binding sites on cell lines; conditions: for Kd: read-out: Kp
Source text: (§3) ^125-labeled Vitaxin® was used to determine binding affinities and number of binding sites for human, rabbit and hamster cell lines. The affinity of Vitaxin® for hamster αvβ3 was approximately 2-3 fold lower than human αvβ3 while its affinity for rabbit αvβ3 was about 4-10 fold lower than human αvβ3.

[6] = system: hamster αvβ3; assay: as above
Source text: as §3

[7] = target: T2, human αvβ3; assay: as above; conditions: for Kd: read-out: Kp
Source text: as §3

[8] = target: T3, human β3 Mutant A (E171Q) (Homo sapiens, UniProt P05106, E197Q); assay: FACS analysis of HEK293 transfectants, human β3 containing rat residues; assay type: binding; conditions: flow cytometry
T3 construct: expressed in transfected cells; host or cells: HEK293
T3 sequence (P05106 27-788 E197Q): as the sequence (P05106 27-788) above, with E171Q counted along it
T3 sequence (P06756 31-889 partner limits assumed): as the sequence (P06756 31-889 partner limits assumed) above
T3 sequence (P06756 891-1048 partner limits assumed): as the sequence (P06756 891-1048 partner limits assumed) above
Source text: (§4) FIG. 4. Binding of Integrin αvβ3 specific antibodies to human β3 containing rat residues.
(§5) Sequence comparison of residues 164 to 202 of β3 integrins from different species and design of mutations. To further characterize the binding epitope of Vitaxin®, the gene encoding β3 was cloned and sequenced from hamster cDNA. The amino acids in the region previously proposed to contain the LM609 binding epitope are shown above (dashed lines depict conserved residues). To determine which residues in the human sequence were essential for antibody binding, the amino acids shown in color were mutated to the corresponding rat residues. The resulting genes were transfected to HEK293 cells which express endogenous human αv. Resulting cell lines were analyzed by flow cytometry for antibody binding.
(§6) This protocol is used to assess the surface expression of integrins in HEK-293 cells transfected with various Integrin subunits. Primary antibodies bound to the integrins are detected by fluorochrome-conjugated secondary antibodies and analyzed by flow cytometry.
(§7) 1. Wash adherent cells twice with 5 ml of PBS.
(§8) 2. Add 1.5 ml of trypsin solution or cell dissociation solution, incubate at 37_C. foir 2 min.
(§9) 3. Add 3 ml of culture medium or FACs buffer to the plate and loosen cells from the plate by pipetting. Count cells. Resuspend cells in FACs buffer at 5×10^6 per ml.
(§10) 4. Transfer an aliquot of 5×10^5 cells (100 μl) into microfuge tubes containing 10 μg mouse IgG or human IgG. Incubate cells for 20 min at RT to block IgG receptor sites. Note: use mouse IgG for blocking when using human primary mAb; use human IgG for blocking when using mouse primary mAb.
(§11) 5. Add […] of Vitaxin®, or other primary mAb, and incubate for 20 min at RT.
(§12) 6. Wash twice with 500 μl of FACS buffer, spinning cells at 1500 rpm for 5 minutes.
(§13) 7. Add 0.5 mg of goat anti-human IgG Alexa 488, or other secondary antibodies, and incubate for 20 min at RT.
(§14) 8. Wash twice with 500 μl FACS buffer, spinning cells at 1500 rpm for 5 minutes.
(§15) 9. Resuspend in 500 μl buffer for FACS analysis.
(§16) 10. Use unstained cells for background. For negative control, use secondary antibody alone.

[9] = target: T4, human β3 Mutant ABC (E171Q L173I E174K D179T T182S) (Homo sapiens, UniProt P05106, D205T/E197Q/E200K/L199I/T208S); assay: as above; assay type: binding; conditions: flow cytometry
T4 construct: expressed in transfected cells; host or cells: HEK293
T4 sequence (P05106 27-788 E197Q/L199I/E200K/D205T/T208S): as the sequence (P05106 27-788) above, with E171Q, L173I, E174K, D179T, T182S counted along it
T4 sequence (P06756 31-889 partner limits assumed): as the sequence (P06756 31-889 partner limits assumed) above
T4 sequence (P06756 891-1048 partner limits assumed): as the sequence (P06756 891-1048 partner limits assumed) above
Source text: as §4, §5, §6, §7, §8, §9, §10, §11, §12, §13, §14, §15, §16

[10] = target: T5, human β3 Mutant B (L173I E174K) (Homo sapiens, UniProt P05106, E200K/L199I); assay: as above; assay type: binding; conditions: flow cytometry
T5 construct: expressed in transfected cells; host or cells: HEK293
T5 sequence (P05106 27-788 L199I/E200K): as the sequence (P05106 27-788) above, with L173I, E174K counted along it
T5 sequence (P06756 31-889 partner limits assumed): as the sequence (P06756 31-889 partner limits assumed) above
T5 sequence (P06756 891-1048 partner limits assumed): as the sequence (P06756 891-1048 partner limits assumed) above
Source text: as §4, §5, §6, §7, §8, §9, §10, §11, §12, §13, §14, §15, §16

[11] = flow cytometry, tumor cell lines, FIG. 2
[12] = Human HUVEC primary endothelium

B1: Vitaxin®: humanized blocking monoclonal antibody that binds Integrin αVβ3 (MEDI-522, MedImmune); humanized and optimized version of LM609 (antibody, chains of the INN, looked up, V domains shown)
VH: QVQLVESGGGVVQPGRSLRLSCAASGFTFSSYDMSWVRQAPGKGLEWVAKVSSGGGSTYYLDTVQGRFTISRDNSKNTLYLQMNSLRAEDTAVYYCARHLHGSFASWGQGTTVTVSS
VL: EIVLTQSPATLSLSPGERATLSCQASQSISNFLHWYQQRPGQAPRLLIRYRSQSISGIPARFSGSGSGTDFTLTISSLEPEDFAVYYCQQSGSWPLTFGGGTKVEIK
Fold Increase Over Control (mean channel fluorescence) ([1]; Rabbit VX7 carcinoma, 5×10^5 cells, 0.5 μg antibody, vs isotype matched control antibody): 17 fold | binding to rabbit αvβ3 (in words) [1, 11]: recognized | Fold Increase Over Control (mean channel fluorescence) [2]: 0.95 fold | Fold Increase Over Control (mean channel fluorescence) ([3]; Hamster CCL-49 melanoma, 5×10^5 cells, 0.5 μg antibody, vs isotype matched control antibody): 12 fold | binding to hamster αvβ3 (in words) [3, 11]: recognized; also recorded: capable of binding | Fold Increase Over Control (mean channel fluorescence) ([4]; Human HMVEC endothelial): 8.9 fold | Fold Increase Over Control (mean channel fluorescence) ([4]; Human M21 melanoma): 73 fold | binding to human αvβ3 (in words) [4, 11]: recognized; also recorded: capable of binding | Kd ([5]; Rabbit RK1 kidney epithelium): 23 nM | Kd ([5]; Rabbit VX7 carcinoma): 8.9 nM | affinity for rabbit αvβ3, fold lower than human αvβ3 ([5]; rabbit vs human cell lines): 4-10 fold | Kd ([6]; Hamster CCL-49 melanoma, read-out: Kp): 6.9 nM | affinity for hamster αvβ3, fold lower than human αvβ3 ([6]; hamster vs human cell lines): 2-3 fold | Binding Sites [7, 12]: 8.1 × 10^4 | Kd [7, 12]: 3.3 nM | Binding Sites ([7]; Human M21 melanoma): 1.3 × 10^5 | Kd ([7]; Human M21 melanoma): 2.2 nM | effect of Mutation A (Glu to Gln at position 171) on antibody binding [8]: disrupts binding | effect of changing all three regions (A, B and C) to rat residues on antibody binding [9]: disrupt binding; also recorded: completely eliminate binding | effect of Mutation B (Leu, Glu to Ile, Lys at positions 173 and 174) on antibody binding [10]: disrupt binding
